Data from patent US20160304573A1, “FIBROMODULIN PEPTIDE” (The Regents of the University of California, priority 2010, published 2016).

Columns and labels:
TGF-β2 = target: T1, TGF-β2 (Homo sapiens, UniProt P61812); experiment: TGF-β2 binding to biotinylated FMOD/FMOD peptides on avidin resin; non-bound TGF-β read by Mv1Lu growth inhibition (MTT); details: ratios 1:1, 10:1, 100:1, 1000:1 to TGF-β; FIG. 14
T1 sequence (P61812 303-414 limits assumed): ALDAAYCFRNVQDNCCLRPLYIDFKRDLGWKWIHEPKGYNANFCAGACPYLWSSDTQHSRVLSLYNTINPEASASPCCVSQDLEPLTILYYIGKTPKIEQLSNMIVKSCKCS
Experimental: FMOD (whole protein) (SEQ ID NO:1), FMOD peptides and control protein BSA were biotinylated. While, the biotinylated proteins and peptides were bound to commercial available Piece Monomeric Avidin UltraLink Resin (Piece). The amounts of each test peptides/proteins are 1:1, 10:1, 100:1 and 1000:1 to TGF-βs, respectively. After washing out the non-bound residues, appropriate amount TGF-βs (based on the primary test assay) were added to the resin at 4° C. After overnight binding, non-bound TGF-βs were collected, followed by filter sterilization. Then, the TGF-βs residue were diluted 100 times in DEME-0.5% FBS to ensure the concentration was located in the linear region of TGF-βs on Mv1Lu proliferate inhibition.
Diluted TGF-βs was added to overnight serum-starved Mv1Lu, and fresh TGF-βs media were added for another 24 hour before MTT assay. Samples with no TGF-βs added were employed as controls.

Rat-2 fibroblasts = experiment: Z-axes series sequential images, relative height of nodules; assay type: cell-based; details: FMOD and TGF-β1 treatment
Excerpt: But for the nodules formed with FMOD and TGF-β1 treatment (yellow arrows), the cells were stacked on top of one another to a height of about 48 μm.

[1] = system: α-smooth muscle actin (α-SMA) expression; experiment: α-SMA expression staining; assay type: cell-based
Experimental: Exemplary tests on effects of FMOD and TGF-β or FMOD peptides and TGF-β on α-SMA expression were performed and shown in FIGS. 25A-25D. Expression levels of α-SMA, which is a marker for the transition of fibroblasts to myofibroblasts, were measured and presented in staining in these figures.

[2] = 100 pM TGF-β1+200 nM Fibromodulin, FIG. 25D

B1: FMOD: recombinant human fibromodulin whole protein (SEQ ID NO:1) produced in CHO-K1 (protein, listed as Homo sapiens)
chain: MQWTSLLLLAGLFSLSQAQYEDDPHWWFHYLRSQQSTYYDPYDPYPYETYEPYPYGVDEGPAYTYGSPSPPDPRDCPQECDCPPNFPTAMYCDNRNLKYLPFVPSRMKYVYFQNNQITSIQEGVFDNATGLLWIALHGNQITSDKVGRKVFSKLRHLERLYLDHNNLTRMPGPLPRSLRELHLDHNQISRVPNNALEGLENLTALYLQHNEIQEVGSSMRGLRSLILLDLSYNHLRKVPDGLPSALEQLYMEHNNVYTVPDSYFRGAPKLLYVRLSHNSLTNNGLASNTFNSSSLLELDLSYNQLQKIPPVNTNLENLYLQGNRINEFSISSFCTVVDVVNFSKLQVLRLDGNEIKRSAMPADAPLCLRLASLIEI
B1 was tested, and the TGF-β2 binding (TGF-β2) was “TGF-β2 binding that also expectedly increased with higher FMOD protein ratios”, the “height of stacked cells in nodules” value (Rat-2 fibroblasts) was “about 48 μm” and the cell density/cell aggregation [1, 2] was “increased cell density/cell aggregation”. The α-SMA staining [1, 2] was “significantly increased α-SMA staining” and the α-SMA staining ([1]; mono-treatment (200 nM FMOD or 100 pM TGF-β1), FIGS. 25B, 25C) was “minimal α-SMA staining”.
